Measured values: the supplement of paper PMC12764529
± gives the half width of the 95% confidence interval.

Key:
[1] = folding stability dG unfold from trypsin proteolysis; higher = more stable
Procedure, shortened: (§1)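 Bayesian fitting of sequencing counts gave K50 for each design. Unfolding free energy followed by setting this against a sequence-predicted unfolded-state K50 and a shared folded-state K50, either per protease or with trypsin and chymotrypsin combined. The designs, under 80 residues and lacking cysteine, were digested in a PA-tagged cDNA display format at 11 threefold-diluted protease concentrations and without protease, and only those with AlphaFold2 dimer inter-PAE above 15 were kept.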

[2] = folding stability dG unfold (combined trypsin and chymotrypsin); higher = more stable
Procedure, shortened: as §1

[3] = folding stability dG unfold from chymotrypsin proteolysis; higher = more stable
Procedure, shortened: as §1

| Sequence | folding stability dG unfold [1] | folding stability dG unfold [2] | folding stability dG unfold [3] |
| --- | --- | --- | --- |
| SAGGSAGGSAGFYKAKLKILKTKVYSNEKGTKKKTYKPVLILEELIPPKIPKELWEKLNKSAGGSAGGSAGG [r11_318_TrMRF] | 0.836 ± 0.3 kcal/mol | 0.55 ± 0.57 kcal/mol | 0.528 ± 0.4 kcal/mol |
| SAGGSAGGSAGGAAPNTFKVRLELKVKVEKRTYKNEDGSTYEVDSISVELKIEIEPLPDSAGGSAGGSAGGS [r10_1212_TrROS_Hall] | 3.85 ± 0.19 kcal/mol | 5.66 ± 0.51 kcal/mol | 5.69 ± 0.2 kcal/mol |
| SAGGSAGGSAGGAEITIEEKDGKLTLTVRLPDGYVATATFDPNGKWTIKEIKVYKLPEGLSAGGSAGGSAGG [r7_826_TrROS_Hall] | 2.35 ± 0.3 kcal/mol | 3.05 ± 0.47 kcal/mol | 3.52 ± 0.077 kcal/mol |
| SAGGSAGGSAGGAEKFKVLSVSWDLGKGKRYGVLEVERPDGPLLTIVVPLSYPDKLKELASAGGSAGGSAGG [r7_365_TrMRF] | 0.395 ± 0.14 kcal/mol | 1.02 ± 0.22 kcal/mol | 1.29 ± 0.17 kcal/mol |
| SAGGSAGGSAGGAELLPSDVLKFTLTIQPDLKGSPPIIVEVTISVPPEVLEKPEIEVSLSAGGSAGGSAGGS [r10_672_JUSTAS] | 2.12 ± 0.15 kcal/mol | 2.7 ± 0.15 kcal/mol | 2.87 ± 0.093 kcal/mol |
| SAGGSAGGSAGGAKKAIEEAIKAGYLPYEDPESGKIHFYFPTPDGTIHKLTLFVAPEEESAGGSAGGSAGGS [r10_1173_TrMRF] | 0.591 ± 0.03 kcal/mol | 0.796 ± 0.14 kcal/mol | 0.711 ± 0.17 kcal/mol |
| SAGGSAGGSAGGAKTTTLGSESEEEIRAVAAKLPADSTITTNRPGGTSVITVSPNEIVTNSAGGSAGGSAGG [r7_560_JUSTAS] | 0.144 ± 0.043 kcal/mol | 0.836 ± 0.055 kcal/mol | 1.22 ± 0.046 kcal/mol |
| SAGGSAGGSAGGALEEKAKEIIEELKKKGIKVKEVKTSPNEITITFEDGSTKKIPIINGSAGGSAGGSAGGS [r10_169_JUSTAS] | 2.55 ± 0.12 kcal/mol | 2.66 ± 0.1 kcal/mol | 2.54 ± 0.16 kcal/mol |
| SAGGSAGGSAGGAPAAVESVEPLKIGDKEYLRITFPDGTTVTLPSSTPLSPDGQKLKPVPSAGGSAGGSAGG [r7_931_JUSTAS] | 0.65 ± 0.042 kcal/mol | 0.628 ± 0.033 kcal/mol | 0.503 ± 0.031 kcal/mol |
| SAGGSAGGSAGGAPEKEVTVRVRITVFRDGKPVEEIELEPGQTLTFPPGARVVIEVELLPSAGGSAGGSAGG [r7_141_TrROS_Hall] | 3 ± 0.13 kcal/mol | 3.39 ± 0.17 kcal/mol | 3.51 ± 0.12 kcal/mol |
| SAGGSAGGSAGGAPEVKRVLVLVEVEVKPGDTIELPEGARVIWDPKTRRLYVLVEVELRPSAGGSAGGSAGG [r7_584_TrROS_Hall] | 2.73 ± 0.12 kcal/mol | 3.38 ± 0.13 kcal/mol | 3.77 ± 0.057 kcal/mol |
| SAGGSAGGSAGGAPPPPVKVKVVEIEEEGGERRIRVENEDTGEVVELRVPKGAEVLEELSAGGSAGGSAGGS [r10_1038_TrROS_Hall] | 1.32 ± 0.048 kcal/mol | 1.23 ± 0.16 kcal/mol | 1.37 ± 0.055 kcal/mol |
| SAGGSAGGSAGGAPVEVKTAVFRHPDNPRWYVLRVARLPGTGRLVVVLFDPETGEFAVFPSAGGSAGGSAGG [r7_923_TrMRF] | 0.755 ± 0.087 kcal/mol | 1.67 ± 0.16 kcal/mol | 2.18 ± 0.16 kcal/mol |
| SAGGSAGGSAGGATAEELAAALKELEAKLKALLEKPEEVEVEVEVKAPEVEEVDGKLVLLSAGGSAGGSAGG [r7_44_TrROS_Hall] | 0.651 ± 0.041 kcal/mol | 0.145 ± 0.11 kcal/mol | -1.19 ± 0.33 kcal/mol |
| SAGGSAGGSAGGATFKPGETVRVEVEVELRVFKVDEETGEIVEETETVTVRVEVEVRLESAGGSAGGSAGGS [r10_122_TrROS_Hall] | 1.87 ± 0.1 kcal/mol | 2.04 ± 0.11 kcal/mol | 2.32 ± 0.053 kcal/mol |
| SAGGSAGGSAGGDDNDPGKIKIEVEVETYPIPNPNGEPFYITTHTIKIPNLDIEFMMIMPSAGGSAGGSAGG [r7_945_TrROS] | 2.01 ± 0.1 kcal/mol | 1.7 ± 0.11 kcal/mol | 1.45 ± 0.039 kcal/mol |
| SAGGSAGGSAGGDIFIPPNGKLVVIENLPSIEEALEILKNFPNLKPFIDPKTKKIIVPVSAGGSAGGSAGGS [r10_792_TrMRF] | -0.145 ± 0.075 kcal/mol | -0.216 ± 0.099 kcal/mol | -0.338 ± 0.045 kcal/mol |
| SAGGSAGGSAGGDNVLILVKLPKGYRVYSINDPEVLKAVTLKELKDELEKKTGYPVEVLPSAGGSAGGSAGG [r7_259_TrMRF] | 1.48 ± 0.041 kcal/mol | 1.57 ± 0.22 kcal/mol | 1.66 ± 0.18 kcal/mol |

| Sequence | folding stability dG unfold [1] | folding stability dG unfold [2] | folding stability dG unfold [3] |
| --- | --- | --- | --- |
| SAGGSAGGSAGGDPDDKPPKIEWKPIEYSFYLPNGWMISDEIWVFPDNGAILISIEIMPSAGGSAGGSAGGS [r10_881_TrROS] | 2.48 ± 0.21 kcal/mol | 3.37 ± 0.95 kcal/mol | 3.67 ± 0.31 kcal/mol |
| SAGGSAGGSAGGDPKKKKGGTFTLTFKLKFTVNIPEGKVEYEFKAKIKITINEPPDFGLSSAGGSAGGSAGG [r7_485_TrMRF] | 3.81 ± 0.2 kcal/mol | 5.67 ± 0.3 kcal/mol | 5.81 ± 0.23 kcal/mol |
| SAGGSAGGSAGGDRLKIIIPFPPGMDIDQIAEELKPHFKKVEIEHDKEDGWVTIEVELDSAGGSAGGSAGGS [r10_1007_TrROS] | 0.271 ± 0.097 kcal/mol | 0.939 ± 0.15 kcal/mol | 1.08 ± 0.1 kcal/mol |
| SAGGSAGGSAGGDSMSYDPKLVEEPVVEVFDGPVLVRVTEVTLPNGKKLTTTEELPPGLESAGGSAGGSAGG [r7_846_JUSTAS] | -0.436 ± 0.17 kcal/mol | 0.546 ± 0.09 kcal/mol | 0.796 ± 0.05 kcal/mol |
| SAGGSAGGSAGGDSNVDNFTLMFPWGWVVKIDITYTDGGLETDWEIIEPVPPLPPDDKNKSAGGSAGGSAGG [r7_845_TrROS] | 1.6 ± 0.081 kcal/mol | 2.77 ± 0.12 kcal/mol | 3.54 ± 0.037 kcal/mol |
| SAGGSAGGSAGGDSVQIEFPDNGMTITINPNNGPISIMEPDGKKKTYPVDSPEEALDAISAGGSAGGSAGGS [r10_849_TrROS] | 0.221 ± 0.027 kcal/mol | 1.14 ± 0.061 kcal/mol | 1.42 ± 0.042 kcal/mol |
| SAGGSAGGSAGGDVKVTVTVTVDPETGEPVVEVTLELPGDRAIRARFTPDGRLLSVEEVDSAGGSAGGSAGG [r7_454_TrMRF] | 3.79 ± 0.25 kcal/mol | 3.51 ± 0.21 kcal/mol | 3.01 ± 0.16 kcal/mol |
| SAGGSAGGSAGGEAFEVERVELVLDPETGTPYLLVYFRDGRVLVYDLPRGTWRVVPAEELSAGGSAGGSAGG [r11_922_TrMRF] | 2.21 ± 0.049 kcal/mol | 2.81 ± 0.065 kcal/mol | 3.06 ± 0.076 kcal/mol |
| SAGGSAGGSAGGEELEVSVSVSVTEVDGKLYLTATVTIDGKEYTFTAELTVTLPPPPPEESAGGSAGGSAGG [r7_413_TrROS_Hall] | 2.77 ± 0.32 kcal/mol | 3.71 ± 0.28 kcal/mol | 3.91 ± 0.19 kcal/mol |
| SAGGSAGGSAGGEIEVKEGEVVLVRLPDGTLLLYDKNTRRLYRFRFKDGKLEVEELELPESAGGSAGGSAGG [r7_527_TrROS_Hall] | 3.35 ± 0.06 kcal/mol | 4.03 ± 0.12 kcal/mol | 4.356 ± 0.039 kcal/mol |
| SAGGSAGGSAGGEKEEEEVTVTIYNKETDKVIEITVPKGVTEEEARKKAKELAEELEKKKSAGGSAGGSAGG [r7_957_TrROS_Hall] | 0.29 ± 0.032 kcal/mol | -0.00187 ± 0.19 kcal/mol | -0.316 ± 0.21 kcal/mol |
| SAGGSAGGSAGGEKEPVTLLVVRVDGKLVVVSEEELKKLAEELNVEVEVRLVTVTKEELKSAGGSAGGSAGG [r7_185_TrROS_Hall] | 0.567 ± 0.038 kcal/mol | 1.57 ± 0.085 kcal/mol | 1.94 ± 0.033 kcal/mol |
| SAGGSAGGSAGGEKIVLKVKPGDTVEVNGKTIKVPPGALITFDKKTKKLTIEPLSPEDLSAGGSAGGSAGGS [r10_353_TrROS_Hall] | 0.954 ± 0.058 kcal/mol | 1.11 ± 0.19 kcal/mol | 1.14 ± 0.26 kcal/mol |
| SAGGSAGGSAGGEKPKYIIIPATLTVPVLTKEGEGEKVEYKEITLLLIINPDTNEITVSSAGGSAGGSAGGS [r10_533_TrMRF] | 2.7 ± 0.15 kcal/mol | 2.86 ± 0.22 kcal/mol | 3.07 ± 0.07 kcal/mol |
| SAGGSAGGSAGGEKTIRITVKNENGETLEIEVSEEDAEELLKALEDAGISLEEITRIEPVSAGGSAGGSAGG [r7_745_TrROS_Hall] | 1.92 ± 0.12 kcal/mol | 1.8 ± 0.15 kcal/mol | 1.62 ± 0.098 kcal/mol |
| SAGGSAGGSAGGEKVTLTLELPAEEIEELAKALAPPGAKVKITKISYDKENKKVTIEIESAGGSAGGSAGGS [r10_1030_TrROS_Hall] | 0.937 ± 0.061 kcal/mol | 1.23 ± 0.07 kcal/mol | 1.4 ± 0.026 kcal/mol |
| SAGGSAGGSAGGELNIDDIKIDWFPADDMDDRYIFTEKIRGPNGKPTMEVTFWLPAGDLSAGGSAGGSAGGS [r10_155_TrROS] | 0.262 ± 0.068 kcal/mol | 0.00836 ± 0.18 kcal/mol | -0.261 ± 0.62 kcal/mol |
